We go through three substances from publication PMC8381054.

Test [1] deals with human CR2(SCR1-4)-Fc (human).
Test [2] deals with recombinant wild-type human C3d with its native thioester cysteine intact (C3d^17C) (human) (UniProt P01024). In words: SEC; size exclusion chromatography of C3d^17C in solution (Supplementary Figure S2); monomer and disulphide-linked dimer.
Test [3] has the same target. Briefly: non-reducing SDS-PAGE; recombinant C3d^17C 'under non-reducing conditions', 'in a similar manner' to C3b (Supplementary Figure S2, not shown).

Take “chemically-linked dimeric C3d^17C (from UniProt P01024 996-1303)”: in test [1], the geometric mean EC50 of upregulation of CD69 on CD19+ B cells in human PBMC, with anti-IgM F(ab')2 was 47 nM and the geometric mean EC50 of upregulation of CD86 on CD19+ B cells in human PBMC, with anti-IgM F(ab')2 came to 18 nM.

As for “human C3d with a Cys to Ala mutation at position 17(C3d)/1010 (pre-pro C3) (C3d^17A) (from UniProt P01024 996-1303) (domain or fragment)”, in test [1], the geometric mean EC50 of upregulation of CD69 on CD19+ B cells in human PBMC, with anti-IgM F(ab')2 amounted to 139 nM and the geometric mean EC50 of upregulation of CD86 on CD19+ B cells in human PBMC, with anti-IgM F(ab')2 was found to be 59 nM.

On to “recombinant wild-type human C3d with its native thioester cysteine intact (C3d^17C) (from UniProt P01024 996-1303) (domain or fragment)”, for which the stoichiometry N in test [2] and in test [3] was 2 in each case.
